# From patent US20100129369A1 (Eli Lilly, published 2010)
# Numbering of substitutions follows the chain as printed.
# B1: C8-6 (antibody, human IgG2, kappa, V domains shown)
# VH: QVQLVQSGAEVKKPGASVKVSCKASGYTFTDYYMHWVRQAPGQGLEWMGRVNPNRGGTTYNQKFEGRVTMTTDTSTSTAYMELRSLRSDDTAVYYCARTNWLDYWGQGTTVTVSS
# VL: DIQMTQSPSSLSASVGDRVTITCSVSSSVSSIYLHWYQQKPGKAPKLLIYSTSNLASGVPSRFSGSGSGTDFTLTISSLQPEDFATYYCIQYSGYPLTFGGGTKVEIKR
# notes: Named IgG4 kappa; also called C8-6 IgG4
# B2: C8-co-16 (antibody, human IgG2, kappa, V domains shown)
# VH: B1 VH with N54Y, G57S, T99A, W101I
# VL: B1 VL with S30R, I90Q, Q91V, S93R
# B3: C8-co-16 (antibody, human IgG2, kappa, V domains shown)
# VH: B1 VH with N54Y, G57S, T99A, W101I
# VL: B1 VL with S30R, I90Q, Q91V, S93R
# notes: Named IgG4 kappa; also called C8-co-16 IgG4
# How the values were obtained:
# [1] = target: T1, human c-Met ECD-Fc-Flis (human); assay: HGF-blocking ELISA: HGF signal on coated c-Met ECD-Fc-Flis; Ab 30.52 ng/mL
# T1 construct: c-Met ECD fused to Fc with flag- and His-tag at the C-terminus; also called human c-Met extracellular domain (ECD)-Fc-Flis fusion; human c-Met-Flis-Fc ECD
# T1 sequence (chain, as listed by the source): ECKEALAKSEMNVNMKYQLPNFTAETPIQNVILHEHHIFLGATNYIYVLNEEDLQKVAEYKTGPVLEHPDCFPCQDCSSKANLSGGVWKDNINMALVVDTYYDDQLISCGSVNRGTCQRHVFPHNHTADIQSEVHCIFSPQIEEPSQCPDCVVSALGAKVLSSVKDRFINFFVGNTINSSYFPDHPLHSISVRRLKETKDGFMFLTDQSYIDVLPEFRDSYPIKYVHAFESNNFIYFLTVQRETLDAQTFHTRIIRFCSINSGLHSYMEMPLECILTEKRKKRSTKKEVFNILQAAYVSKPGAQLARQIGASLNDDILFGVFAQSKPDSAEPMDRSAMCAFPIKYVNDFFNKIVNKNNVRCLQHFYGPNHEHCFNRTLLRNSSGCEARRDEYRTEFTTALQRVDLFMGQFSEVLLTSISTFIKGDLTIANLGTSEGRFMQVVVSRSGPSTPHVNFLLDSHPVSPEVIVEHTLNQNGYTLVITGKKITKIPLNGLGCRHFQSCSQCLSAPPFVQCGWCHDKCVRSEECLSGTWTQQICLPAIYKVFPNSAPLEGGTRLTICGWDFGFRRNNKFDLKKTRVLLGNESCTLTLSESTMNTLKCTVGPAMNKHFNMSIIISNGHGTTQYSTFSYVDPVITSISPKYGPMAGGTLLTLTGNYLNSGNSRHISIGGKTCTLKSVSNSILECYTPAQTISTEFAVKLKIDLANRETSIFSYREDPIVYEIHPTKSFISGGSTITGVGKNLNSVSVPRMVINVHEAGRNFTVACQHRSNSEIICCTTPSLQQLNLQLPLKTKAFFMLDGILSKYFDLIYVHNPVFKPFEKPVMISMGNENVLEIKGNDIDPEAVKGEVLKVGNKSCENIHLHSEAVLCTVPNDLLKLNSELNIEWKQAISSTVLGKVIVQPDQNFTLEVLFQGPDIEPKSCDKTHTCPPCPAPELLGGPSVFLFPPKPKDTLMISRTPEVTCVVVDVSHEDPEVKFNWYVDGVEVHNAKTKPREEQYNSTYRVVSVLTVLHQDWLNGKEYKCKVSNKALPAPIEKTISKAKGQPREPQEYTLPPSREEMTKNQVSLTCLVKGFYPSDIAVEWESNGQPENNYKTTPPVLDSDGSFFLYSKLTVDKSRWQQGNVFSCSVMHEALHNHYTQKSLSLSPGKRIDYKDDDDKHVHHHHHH
# Protocol: (§1) Wells of 96-well EIA/RIA high binding plates (Costar, #2592) are coated with 100 μL of human c-Met ECD-Fc-Flis (SEQ ID NO:72) (2 μg/mL) in Dulbecco's phosphate buffered saline (DPBS) overnight at room temperature; washed four times with wash buffer (Tris-buffered saline, pH 8.0, with 0.05% (v/v) polysorbate 20 (TWEEN®-20) (TBS-T) (BioFX Labs, # WSHW-1000-01) in a plate washer; blocked by adding 300 μL of blocking buffer (TBS-T plus 1% (w/v) bovine serum albumin (BSA) (Jackson Immuno, #001-000-162); and incubating for 60 min. at 37° C. Blocking buffer is then removed from the wells and 50 μL of antibodies in blocking buffer at final concentrations as indicated in Table 7 are added into each well, respectively. […] The plates with c-Met antibodies are incubated for 90 min. at 37° C. […] The wells are then washed four times with TBS-T in a plate washer. […] The plates are incubated for 90 min. at room temperature. The wells are again washed four times with TBS-T in a plate washer. 100 μL of a 1:200 dilution of streptavidin-horseradish peroxidase (HRP) (R&D Systems, DY998) in blocking buffer are added to each well. The plates are incubated for 30 min. at room temperature. The wells are washed four times with TBS-T in a plate washer. 100 μL/well of substrate solution (BioFx, #TMBW-1000-01) are then added, and the plates are incubated for 10 min. at room temperature. To stop the reaction, 100 μL/well of stop solution (BioFx, # LSTP-1000-01) are added. The samples are read at a wavelength of 450-570 nm on a microplate reader (Spectra, MAX 190) and no background is subtracted.
# [2] = target: T2, human c-Met (human, UniProt P08581 25-1390); assay: cell-based or functional assay
# T2 sequence (P08581 25-1390): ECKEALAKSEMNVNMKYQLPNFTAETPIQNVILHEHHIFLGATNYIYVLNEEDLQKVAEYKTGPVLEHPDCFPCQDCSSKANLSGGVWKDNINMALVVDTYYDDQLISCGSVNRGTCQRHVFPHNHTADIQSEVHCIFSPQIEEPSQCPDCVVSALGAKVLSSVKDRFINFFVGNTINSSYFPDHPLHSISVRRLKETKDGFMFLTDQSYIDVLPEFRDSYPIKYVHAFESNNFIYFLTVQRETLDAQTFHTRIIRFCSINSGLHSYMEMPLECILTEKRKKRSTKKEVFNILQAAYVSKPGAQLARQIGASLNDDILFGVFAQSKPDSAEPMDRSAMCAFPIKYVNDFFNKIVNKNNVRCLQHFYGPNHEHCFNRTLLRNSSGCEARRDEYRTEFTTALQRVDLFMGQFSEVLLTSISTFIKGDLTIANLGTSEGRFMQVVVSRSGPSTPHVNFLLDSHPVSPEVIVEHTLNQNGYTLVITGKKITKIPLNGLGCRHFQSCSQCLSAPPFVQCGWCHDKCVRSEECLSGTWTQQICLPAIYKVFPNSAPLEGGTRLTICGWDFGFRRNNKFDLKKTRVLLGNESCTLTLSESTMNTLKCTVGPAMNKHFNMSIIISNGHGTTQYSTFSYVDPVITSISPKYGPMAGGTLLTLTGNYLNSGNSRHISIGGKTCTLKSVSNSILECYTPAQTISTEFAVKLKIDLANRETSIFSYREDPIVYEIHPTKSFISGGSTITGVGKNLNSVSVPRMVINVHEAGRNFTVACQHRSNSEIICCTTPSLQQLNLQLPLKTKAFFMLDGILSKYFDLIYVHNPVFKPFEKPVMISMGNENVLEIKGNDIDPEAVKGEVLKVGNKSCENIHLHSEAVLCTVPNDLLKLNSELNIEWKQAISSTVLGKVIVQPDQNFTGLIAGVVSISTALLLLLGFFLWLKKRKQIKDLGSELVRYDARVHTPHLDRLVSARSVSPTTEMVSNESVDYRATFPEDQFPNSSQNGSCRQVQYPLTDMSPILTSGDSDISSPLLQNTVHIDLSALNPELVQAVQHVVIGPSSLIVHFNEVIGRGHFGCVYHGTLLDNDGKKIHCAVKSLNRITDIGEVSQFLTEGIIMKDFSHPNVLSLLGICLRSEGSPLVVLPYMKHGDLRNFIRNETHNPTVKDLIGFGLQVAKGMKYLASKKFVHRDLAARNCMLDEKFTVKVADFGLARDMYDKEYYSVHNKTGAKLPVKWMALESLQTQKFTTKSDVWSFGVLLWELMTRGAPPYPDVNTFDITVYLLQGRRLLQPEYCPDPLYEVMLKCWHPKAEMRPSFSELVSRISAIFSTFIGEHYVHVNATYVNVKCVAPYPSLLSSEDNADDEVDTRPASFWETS
# [3] = target: T1, human c-Met ECD-Fc-Flis; assay: HGF-blocking ELISA: HGF signal on coated c-Met ECD-Fc-Flis; Ab 7.63 ng/mL
# Protocol: as §1
# [4] = target: T2, human c-Met; assay: cell-based or functional assay; remark: listed apart in the source
# [5] = target: T2, human c-Met; assay: cell-based or functional assay; remark: listed apart in the source
# [6] = target: T1, human c-Met ECD-Fc-Flis; assay: HGF-blocking ELISA: HGF signal on coated c-Met ECD-Fc-Flis; Ab 1953.13 ng/mL
# Protocol: as §1
# [7] = target: T1, human c-Met ECD-Fc-Flis; assay: HGF-blocking ELISA: HGF signal on coated c-Met ECD-Fc-Flis; Ab 0.00 ng/mL (HGF only)
# Protocol: as §1
# [8] = target: T1, human c-Met ECD-Fc-Flis; assay: HGF-blocking ELISA: HGF signal on coated c-Met ECD-Fc-Flis; Ab 125000.00 ng/mL
# Protocol: as §1
# [9] = target: T1, human c-Met ECD-Fc-Flis; assay: HGF-blocking ELISA: HGF signal on coated c-Met ECD-Fc-Flis; Ab 7812.50 ng/mL
# Protocol: as §1
# [10] = target: T1, human c-Met ECD-Fc-Flis; assay: HGF-blocking ELISA: HGF signal on coated c-Met ECD-Fc-Flis; Ab 488.28 ng/mL
# Protocol: as §1
# [11] = target: T1, human c-Met ECD-Fc-Flis; assay: HGF-blocking ELISA: HGF signal on coated c-Met ECD-Fc-Flis; Ab 1.91 ng/mL
# Protocol: as §1
# [12] = target: T1, human c-Met ECD-Fc-Flis; assay: HGF-blocking ELISA: HGF signal on coated c-Met ECD-Fc-Flis; Ab 0.48 ng/mL
# Protocol: as §1
# [13] = target: T1, human c-Met ECD-Fc-Flis; assay: HGF-blocking ELISA: HGF signal on coated c-Met ECD-Fc-Flis; Ab 122.07 ng/mL
# Protocol: as §1
# [14] = target: T1, human c-Met ECD-Fc-Flis; assay: HGF-blocking ELISA: HGF signal on coated c-Met ECD-Fc-Flis; Ab 31250.00 ng/mL
# Protocol: as §1
# [15] = target: T3, human c-Met (human, UniProt P08581 25-1390); assay: cell-based or functional assay; remark: listed apart in the source
# T3 sequence (P08581 25-1390): as above
# [16] = target: T3, human c-Met; assay: cell-based or functional assay; remark: listed apart in the source
# [17] = target: T3, human c-Met; assay: cell-based or functional assay; remark: listed apart in the source
Binder,AVG A450 nm [1],"Mean Fluorescence (c-Met left on the surface of MKN45 cells, FACS), Ab 5.00 ug/mL [2]",AVG A450 nm [3],"% inhibition of HGF stimulated phospho-Met (ELISA, HCT116 cells), Ab 0.0032 µg/mL [4]","% inhibition of HGF stimulated phospho-Met (ELISA, HCT116 cells), Ab 0.016 µg/mL [4]","% inhibition of HGF stimulated phospho-Met (ELISA, HCT116 cells), Ab 0.08 µg/mL [4]","% inhibition of HGF stimulated phospho-Met (ELISA, HCT116 cells), Ab 0.4 µg/mL [4]","% inhibition of HGF stimulated phospho-Met (ELISA, HCT116 cells), Ab 2 µg/mL [4]","% inhibition of HGF stimulated phospho-Met (ELISA, HCT116 cells), Ab 10 µg/mL [4]","AVG CPM, 3H-thymidine incorporation in MKN45 cells, Ab 0.0 ng/mL (no antibody) [5]","AVG CPM, 3H-thymidine incorporation in MKN45 cells, Ab 0.1 ng/mL [5]","AVG CPM, 3H-thymidine incorporation in MKN45 cells, Ab 0.4 ng/mL [5]","AVG CPM, 3H-thymidine incorporation in MKN45 cells, Ab 2.6 ng/mL [5]","AVG CPM, 3H-thymidine incorporation in MKN45 cells, Ab 15.4 ng/mL [5]","AVG CPM, 3H-thymidine incorporation in MKN45 cells, Ab 92.6 ng/mL [5]","AVG CPM, 3H-thymidine incorporation in MKN45 cells, Ab 555.6 ng/mL [5]","AVG CPM, 3H-thymidine incorporation in MKN45 cells, Ab 3333.3 ng/mL [5]","AVG CPM, 3H-thymidine incorporation in MKN45 cells, Ab 20000.0 ng/mL [5]",AVG A450 nm [6],AVG A450 nm [7],further results
B1,2.42 A450 nm,67.9,2.64 A450 nm,-11.3%,-6.06%,7.79%,16.8%,27.9%,14.9%,48700 CPM,51700 CPM,53400 CPM,54600 CPM,44800 CPM,23000 CPM,18300 CPM,18200 CPM,16400 CPM,1.08 A450 nm,2.61 A450 nm,AVG A450 nm [8]: 1.32 A450 nm; AVG A450 nm [9]: 0.95 A450 nm; AVG A450 nm [10]: 1.33 A450 nm; AVG A450 nm [11]: 2.59 A450 nm; AVG A450 nm [12]: 2.56 A450 nm; AVG A450 nm [13]: 2 A450 nm; AVG A450 nm [14]: 0.98 A450 nm
B2,–,–,–,–,–,–,–,–,–,–,–,–,–,–,–,–,–,–,–,–,"3H-Thymidine Incorporation in Caki-1 Cells in the Absence of HGF (AVG CPM), antibody dose 0.1 ng/mL [15]: 15600 CPM; 3H-Thymidine Incorporation in Caki-1 Cells in the Absence of HGF (AVG CPM), antibody dose 0.4 ng/mL [15]: 14100 CPM; 3H-Thymidine Incorporation in Caki-1 Cells in the Absence of HGF (AVG CPM), antibody dose 2.6 ng/mL [15]: 13700 CPM; 3H-Thymidine Incorporation in Caki-1 Cells in the Absence of HGF (AVG CPM), antibody dose 15.4 ng/mL [15]: 12100 CPM; 3H-Thymidine Incorporation in Caki-1 Cells in the Absence of HGF (AVG CPM), antibody dose 92.6 ng/mL [15]: 11600 CPM; 3H-Thymidine Incorporation in Caki-1 Cells in the Absence of HGF (AVG CPM), antibody dose 555.6 ng/mL [15]: 11400 CPM; 3H-Thymidine Incorporation in Caki-1 Cells in the Absence of HGF (AVG CPM), antibody dose 3333.3 ng/mL [15]: 13800 CPM; 3H-Thymidine Incorporation in Caki-1 Cells in the Absence of HGF (AVG CPM), antibody dose 20000.0 ng/mL [15]: 13100 CPM; Percent of DU145 Cells in Colonies (scatter assay), antibody 20 ug/mL [16]: 23.7%; 3H-Thymidine Incorporation in Primary Human Hepatocytes in the Absence of HGF (average), dose 0.0032 ug/mL [17]: 829; 3H-Thymidine Incorporation in Primary Human Hepatocytes in the Absence of HGF (average), dose 0.016 ug/mL [17]: 716; 3H-Thymidine Incorporation in Primary Human Hepatocytes in the Absence of HGF (average), dose 0.08 ug/mL [17]: 767; 3H-Thymidine Incorporation in Primary Human Hepatocytes in the Absence of HGF (average), dose 0.4 ug/mL [17]: 670; 3H-Thymidine Incorporation in Primary Human Hepatocytes in the Absence of HGF (average), dose 2 ug/mL [17]: 822; 3H-Thymidine Incorporation in Primary Human Hepatocytes in the Absence of HGF (average), dose 10 ug/mL [17]: 952"
B3,2.08 A450 nm,56.2,2.2 A450 nm,-10.7%,-2.89%,9.77%,45.1%,59%,65.4%,51500 CPM,45700 CPM,47500 CPM,53500 CPM,22500 CPM,12400 CPM,13500 CPM,13000 CPM,11700 CPM,0.6 A450 nm,2.61 A450 nm,AVG A450 nm [8]: 0.38 A450 nm; AVG A450 nm [9]: 0.57 A450 nm; AVG A450 nm [10]: 0.7 A450 nm; AVG A450 nm [11]: 2.18 A450 nm; AVG A450 nm [12]: 2.05 A450 nm; AVG A450 nm [13]: 1.3 A450 nm; AVG A450 nm [14]: 0.56 A450 nm
